Laboratory results taken from patent JP2014141434A (dated 2014).

How the values were obtained:
[1] = target: T1, N末端FLAG−tag付加型ヒトROBO4細胞外領域ドメイン欠損体 hROBO4−225 (human, UniProt Q8WZ75 225-1007); test: flow cytometry, transfected HEK293 cells
T1 construct: On HEK293 cells; also called pCI−FLAG−hROBO4−225; pCI−hROBO4−225
T1 sequence: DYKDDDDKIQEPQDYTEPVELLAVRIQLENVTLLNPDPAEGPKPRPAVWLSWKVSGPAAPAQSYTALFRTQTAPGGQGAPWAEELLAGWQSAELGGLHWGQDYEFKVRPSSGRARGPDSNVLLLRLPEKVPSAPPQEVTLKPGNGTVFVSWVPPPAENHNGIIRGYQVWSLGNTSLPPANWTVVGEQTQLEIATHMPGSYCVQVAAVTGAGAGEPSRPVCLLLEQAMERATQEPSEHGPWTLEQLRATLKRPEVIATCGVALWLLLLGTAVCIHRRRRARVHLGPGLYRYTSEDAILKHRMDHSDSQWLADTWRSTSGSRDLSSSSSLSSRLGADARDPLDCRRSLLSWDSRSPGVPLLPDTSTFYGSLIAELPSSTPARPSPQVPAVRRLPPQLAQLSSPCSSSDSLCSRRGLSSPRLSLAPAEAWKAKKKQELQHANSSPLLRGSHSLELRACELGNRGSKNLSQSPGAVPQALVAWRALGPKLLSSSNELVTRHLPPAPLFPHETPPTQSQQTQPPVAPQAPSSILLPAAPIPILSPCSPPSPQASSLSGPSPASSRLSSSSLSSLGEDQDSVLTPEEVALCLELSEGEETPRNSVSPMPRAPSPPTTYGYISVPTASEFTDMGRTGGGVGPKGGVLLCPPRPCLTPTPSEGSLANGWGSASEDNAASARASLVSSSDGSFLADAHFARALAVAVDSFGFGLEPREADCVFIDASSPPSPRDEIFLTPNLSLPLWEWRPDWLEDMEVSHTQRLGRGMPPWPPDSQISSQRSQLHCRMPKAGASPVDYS

[2] = target: T2, N末端FLAG−tag付加型カニクイザルROBO4 cynoROBO4−2 (cynomolgus monkey, UniProt Q8WZ75 28-1007 (human entry)); test: flow cytometry, transfected HEK293 cells, 10 μg/mL
T2 construct: also called pCI−FLAG−cynoROBO4−2
T2 chain: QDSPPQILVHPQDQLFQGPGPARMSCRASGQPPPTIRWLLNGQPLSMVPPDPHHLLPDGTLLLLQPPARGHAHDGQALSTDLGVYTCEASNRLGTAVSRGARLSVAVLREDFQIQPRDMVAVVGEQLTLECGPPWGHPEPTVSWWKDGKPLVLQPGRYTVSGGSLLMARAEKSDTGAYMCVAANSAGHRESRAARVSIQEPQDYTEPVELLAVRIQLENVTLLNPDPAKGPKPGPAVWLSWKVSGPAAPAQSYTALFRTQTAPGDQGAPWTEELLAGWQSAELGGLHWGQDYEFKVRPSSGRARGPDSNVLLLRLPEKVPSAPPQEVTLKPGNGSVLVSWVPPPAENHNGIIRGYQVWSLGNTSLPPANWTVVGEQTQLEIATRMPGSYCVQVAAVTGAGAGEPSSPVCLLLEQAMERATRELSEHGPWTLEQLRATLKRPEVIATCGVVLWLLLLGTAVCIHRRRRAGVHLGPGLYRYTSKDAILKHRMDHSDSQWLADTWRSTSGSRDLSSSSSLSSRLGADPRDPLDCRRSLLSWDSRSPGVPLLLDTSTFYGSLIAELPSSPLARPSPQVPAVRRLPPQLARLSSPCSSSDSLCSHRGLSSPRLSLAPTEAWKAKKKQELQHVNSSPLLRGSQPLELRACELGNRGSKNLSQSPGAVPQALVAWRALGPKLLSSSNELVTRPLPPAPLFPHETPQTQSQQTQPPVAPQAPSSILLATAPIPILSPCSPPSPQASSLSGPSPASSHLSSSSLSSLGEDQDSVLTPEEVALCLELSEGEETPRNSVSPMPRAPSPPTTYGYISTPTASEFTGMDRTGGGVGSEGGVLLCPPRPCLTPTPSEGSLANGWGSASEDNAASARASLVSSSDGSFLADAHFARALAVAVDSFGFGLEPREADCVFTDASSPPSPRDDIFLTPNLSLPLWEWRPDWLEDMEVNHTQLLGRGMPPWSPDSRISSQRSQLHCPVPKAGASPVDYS

[3] = target: T3, N末端FLAG−tag付加型全長ヒトROBO4 hROBO4−28 (human, UniProt Q8WZ75 28-1007); test: flow cytometry, transfected HEK293 cells, 10 μg/mL
T3 construct: On HEK293 cells; also called pCI−FLAG−hROBO4−28
T3 sequence: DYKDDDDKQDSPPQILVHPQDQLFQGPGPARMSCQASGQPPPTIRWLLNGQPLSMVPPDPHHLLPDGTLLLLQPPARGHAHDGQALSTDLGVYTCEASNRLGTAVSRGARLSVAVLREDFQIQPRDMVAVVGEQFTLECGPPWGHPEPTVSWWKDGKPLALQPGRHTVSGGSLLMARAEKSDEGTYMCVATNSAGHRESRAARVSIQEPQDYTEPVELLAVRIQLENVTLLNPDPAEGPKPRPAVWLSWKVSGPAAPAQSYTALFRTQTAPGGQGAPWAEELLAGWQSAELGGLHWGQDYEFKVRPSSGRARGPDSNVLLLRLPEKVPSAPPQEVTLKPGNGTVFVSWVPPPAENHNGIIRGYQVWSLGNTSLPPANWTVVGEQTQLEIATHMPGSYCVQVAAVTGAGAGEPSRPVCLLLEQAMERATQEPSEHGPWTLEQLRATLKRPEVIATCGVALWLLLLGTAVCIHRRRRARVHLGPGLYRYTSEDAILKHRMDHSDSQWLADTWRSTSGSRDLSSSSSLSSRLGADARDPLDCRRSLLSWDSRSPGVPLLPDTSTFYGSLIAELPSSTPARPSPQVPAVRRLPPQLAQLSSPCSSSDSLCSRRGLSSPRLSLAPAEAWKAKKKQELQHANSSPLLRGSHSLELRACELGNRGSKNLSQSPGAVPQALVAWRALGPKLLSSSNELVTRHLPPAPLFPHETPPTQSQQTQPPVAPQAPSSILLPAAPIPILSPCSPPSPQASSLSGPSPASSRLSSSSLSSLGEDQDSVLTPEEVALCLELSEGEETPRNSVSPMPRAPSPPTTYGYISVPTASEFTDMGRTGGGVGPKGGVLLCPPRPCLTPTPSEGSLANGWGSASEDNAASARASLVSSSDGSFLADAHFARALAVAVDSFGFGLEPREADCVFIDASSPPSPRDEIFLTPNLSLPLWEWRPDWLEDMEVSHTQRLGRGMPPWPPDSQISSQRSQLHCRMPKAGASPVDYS

B1: 抗ROBO4マウスモノクローナル抗体 MAb1 (antibody, V domains shown)
VH: EVQLVESGGGLVKPGGSLKLSCAASGFTFSTYAMSWVRQTPEKRLEWVATISNGGTYTYYPDSVKGRFTISRDNAENTLYLQMSSLRSEDTAMYFCARLIYYDYLDYWGHGTTLTVSS
VL: DAVMTQTPLSLPVSLGDQASISCRSSQSLENSNGNTYLNWYFQKPGQSPQLLIYRVSNRFSGVLDRFSGSGSGTDFTLKISRVEAEDFGVYFCLQVTHVPWTFGGGTKLEIKR
notes: Mouse IgG1 (gamma 1) / kappa from a hybridoma; The constant regions are not in the listing; also called MAb1
B1: no binding (tested: 10 μg/mL) [1]; binds [2]; binds [3].
